In assay [1] the target is T1, TS5-5 (ADAMTS-5) (Homo sapiens, UniProt Q9UNA0).
T1 construct: ADAMTS-5 (i.e. TS5-5, residues 264–555); FLAG; made in house; host or cells: HEK293 cells (previously transfected stocks)
T1 sequence (Q9UNA0 264-555): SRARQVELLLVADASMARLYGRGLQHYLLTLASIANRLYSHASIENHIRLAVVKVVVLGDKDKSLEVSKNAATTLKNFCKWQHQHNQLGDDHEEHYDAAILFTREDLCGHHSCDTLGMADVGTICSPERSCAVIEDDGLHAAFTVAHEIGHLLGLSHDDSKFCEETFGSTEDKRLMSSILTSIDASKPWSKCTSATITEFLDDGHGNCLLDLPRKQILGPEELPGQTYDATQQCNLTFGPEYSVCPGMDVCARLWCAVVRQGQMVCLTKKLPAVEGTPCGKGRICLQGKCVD
Description: Determination of kinetic parameters (kcat and Km) for substrate cleavage by TS5-5, inner-filter corrected. Type of assay: biochemical. The procedure:
A solution of Abz-TESE↓SRGAIY-Dpa-KK-NH2/3/26 (5 mM) or 19/23 (1 mM) in DMSO underwent a 2-fold serial dilution with freshly prepared TNC buffer containing 0.005% (v/v) Brij-35. This gave initial concentrations in the following range: 222.22 to 0.87 μM (Abz-TESE↓SRGAIY-Dpa-KK-NH2/3/23/26) and 177.78 to 1.39 μM (19). Eight substrate concentrations (180 μL) within these ranges (including outer numbers) were added to a 96-well black microplate in triplicate and incubated at 37 °C (20 min). TNC buffer with 0.005% (v/v) Brij-35 was added to substrate-only control wells in a single replicate (180 μL). TS5-5 proteinase was thawed from −80 or −20 °C, made up in TNC buffer with 0.005% (v/v) Brij-35 (300 nM) and added to substrate wells (20 μL). TNC buffer was added to substrate-only control wells (20 μL). Fluorescence intensity was measured at 37 °C for 1 h with readings every 20 s. The rate of substrate cleavage was determined at each substrate concentration and expressed as the mean ± SEM in μM s^–1. The subsequent data was fitted to the Michaelis–Menten eq 2: [drawing 2] 2 where v is the rate of the reaction, Vmax is the maximal rate of the reaction, Km is the Michaelis constant, and [S] is the substrate concentration. This equation enabled the Km value to be determined. The catalytic rate constant kcat was determined from eq 3: [drawing 3] 3 where [E] is the concentration of proteinase, and kcat and Vmax are as defined previously. These initial Km and kcat parameters were determined from n = 3–4 independent experiments with final values for these parameters reported after a correction for the inner-filter effect.
This was performed based on the protocol described in Liu et al.([40]) to correct for quenching of the released Abz fluorophore by uncleaved substrate. Two sets of initial substrate concentrations were prepared as described in the previous section. Both sets of substrate concentrations (180 μL) were added to a 96-well black microplate in triplicate. Two buffer-alone controls with TNC buffer containing 0.005% (v/v) Brij-35 (180 μL) were also added in triplicate. All solutions were incubated at 37 °C (20 min). Abz fluorophore (1 M) in DMSO was serially diluted to 1 mM in DMSO, before further dilution to 100 μM using TNC buffer containing 0.005% (v/v) Brij-35. TNC buffer containing 0.005% (v/v) Brij-35 (20 μL) was added to the first set of substrate concentrations as well as to the first buffer-alone control. Abz fluorophore (20 μL, 100 μM) was added to the second set of substrate concentrations as well as the second buffer-alone control. The end-point fluorescence intensity was measured at 37 °C using λex = 300 nm and λem = 430 nm. At each substrate concentration, […] to give the actual fluorescence of the Abz fluorophore (RFUAbz). These values were divided by RFUAbz at a substrate concentration of 0 μM to give the correction factor for each concentration. The rates for each substrate concentration described in the previous section were divided by their respective correction factors (Tables S6–S10) to deliver the inner-filter corrected kcat and Km values.

Assay [2] deals with T1, TS5-5 (ADAMTS-5). In words: Sensitivity studies with TS5-5. Conditions: 37 °C; for ΔRFU after 20 h: single experiment in triplicate; for lowest ADAMTS-5 concentration at which activity is detected: 5 μM substrate, experiments performed for ∼20 h. Type of assay: biochemical. The procedure: Abz-TESE↓SRGAIY-Dpa-KK-NH2, library parent peptide 3 and hit peptide 26 (5 mM) were each diluted to two concentrations (5.56 μM and 2.78 μM) in freshly prepared TNC buffer with 0.005% (v/v) Brij-35. The two concentrations for each substrate (90 μL) were added to a 96-well black microplate in triplicate. A substrate-only background control was also added in triplicate (90 μL). The resultant solutions were incubated at 37 °C (20 min). TS5-5 proteinase was thawed from −20 °C and made up at the following concentrations in TNC buffer with 0.005% (v/v) Brij-35:10, 5, 2.5, and 1.25 nM. Each concentration of proteinase was added to substrate wells (10 μL), with buffer added to substrate-only control wells (10 μL). The relative fluorescence intensity was measured at 37 °C for 24 h, with readings every 2 min.

[3] abbreviates: TS5-5, TNC buffer with 0.005% (v/v) Brij-35, 37 °C, corrected for inner filter effect, mean ± SEM from 3–4 independent experiments in triplicate.
Setting [4] is: TS5-5, TNC buffer with 0.005% (v/v) Brij-35, 37 °C, corrected for inner filter effect, mean ± SEM from 3–4 independent experiments in triplicate, listed as current substrate.
Setting [5] is: supplementary CSV copy of Table 3, TS5-5, 37 °C.

In general, Km refers to the substrate concentration at which the rate is half of its maximum. What is called kcat is the number of substrate molecules converted per active site and unit of time at saturation. What is called kcat/Km is the second-order rate constant that governs catalysis at low substrate concentration.

Several values for one entry are separate records, joined by “and”; a condition that tells them apart may be missing. Equal values may be shown once. Non-standard residues stand in square brackets, D forms with d. No end group written: not given here. Tyr(3-NO2) = N[C@@H](Cc1ccc(O)c([N+](=O)[O-])c1)C(=O)O; 2Abz = Nc1ccccc1C(=O)O

As to “Abz-TESE↓SRGAIY-Dpa-KK-NH2 [current, ortho-aminobenzoyl(Abz)-TESE↓SRGAIY-N-3-[2,4-dinitrophenyl]-L-2,3-diaminopropionyl(Dpa)-KK-NH2, reference compound]”, the Km in assay [1] (setting [3]) is 125 ± 5 µM. For the same substance, the figures for the kcat in assay [1] (setting [3]), in assay [1] (setting [4]) and in assay [1] (setting [5]) were 3.61 ± 0.31 s⁻¹, 3.61 s⁻¹ and 3.61 ± 0.31 s⁻¹, respectively. Also, the catalytic efficiency (kcat/Km) came to 29100 ± 3090 M⁻¹ s⁻¹ in assay [1] (setting [3]) and 29100 M⁻¹ s⁻¹ in assay [1] (setting [4]). The “ΔRFU after 20 h” value in assay [2] (0.25 nM TS5-5, substrate 5 μM) is “no longer able to detect TS5-5 activity above background fluorescence”; in assay [2] (0.5 nM TS5-5, substrate 5 μM), 59; in assay [2] (1 nM TS5-5, substrate 5 μM) it was more than 100.
As to “KY(NO2)SENESRGK(Abz)IYYKKG (K[Tyr(3-NO2)]SENESRGK(2Abz)IYYKKG) [Compound 26]”, in assay [1] (TS5-5), the “decrease in Km compared to the current substrate” value is reported as approximately 2 fold and the “higher catalytic efficiency (kcat/Km) compared to the current substrate” value is recorded as approximately 1.5 fold. In assay [1] (setting [3]), the Km is 76.9 ± 6.4 µM; the kcat was 3.32 s⁻¹ and 3.32 ± 0.31 s⁻¹; the kcat/Km is 44400 M⁻¹ s⁻¹ and 44400 ± 6690 M⁻¹ s⁻¹. Moreover, the kcat in assay [1] (setting [5]) is 3.32 ± 0.31 s⁻¹. Further, the “ΔRFU after 20 h” value in assay [2] (0.25 nM TS5-5, substrate 5 μM) is reported as more than 30. For the same substance, the “ΔRFU after 20 h” value in assay [2] (0.5 nM TS5-5, substrate 5 μM) is more than 100. Moreover, in assay [2] (1 nM TS5-5, substrate 5 μM), the “ΔRFU after 20 h” value is given as more than 100. Also, the “lowest ADAMTS-5 concentration at which activity is detected” value in assay [2] is reported as 0.25 nM.
As to “KY(NO2)TESESRGK(Abz)IYYKKG (K[Tyr(3-NO2)]TESESRGK(Abz)IYYKKG) [Compound 3]”, in assay [1] (TS5-5), the “decrease in Km compared to the current substrate” value is listed as approximately 4 fold, the “higher catalytic efficiency (kcat/Km) compared to the current substrate” value was approximately 2 fold and the “lower catalytic rate constant (kcat) compared to the current substrate” value is recorded as approximately 2 fold. Also, in assay [1] (setting [3]), the Michaelis-Menten constant (Km) amounted to 29.5 ± 1.7 µM; the kcat is 1.87 s⁻¹ and 1.87 ± 0.15 s⁻¹; the catalytic efficiency (kcat/Km) is 63200 M⁻¹ s⁻¹ and 63200 ± 1840 M⁻¹ s⁻¹. Moreover, in assay [1] (setting [5]), the kcat is 1.87 ± 0.15 s⁻¹. Further, the “ΔRFU after 20 h” value in assay [2] (0.25 nM TS5-5, substrate 5 μM) is recorded as more than 30. For the same substance, in assay [2] (0.5 nM TS5-5, substrate 5 μM), the “ΔRFU after 20 h” value is on record as more than 100. For the same substance, the “ΔRFU after 20 h” value in assay [2] (1 nM TS5-5, substrate 5 μM) is on record as more than 100. Also, the “lowest ADAMTS-5 concentration at which activity is detected” value in assay [2] came out at 0.25 nM.
